Test results: article PMC8298264, “Function of cofactor Akirin2 in the regulation of gene expression in model human neutrophil-like HL60 cells” (Bioscience Reports, 2021)

B1: sp¦P51148¦RAB5C_HUMAN (protein, UniProt P51148 1-216, looked up)
Ras-related protein Rab-5C: MAGRGGAARPNGPAAGNKICQFKLVLLGESAVGKSSLVLRFVKGQFHEYQESTIGAAFLTQTVCLDDTTVKFEIWDTAGQERYHSLAPMYYRGAQAAIVVYDITNTDTFARAKNWVKELQRQASPNIVIALAGNKADLASKRAVEFQEAQAYADDNSLLFMETSAKTAMNVNEIFMAIAKKLPKNEPQNATGAPGRNRGVDLQENNPASRSQCCSN
B2: sp¦O60488¦ACSL4_HUMAN (protein, UniProt O60488 1-711, looked up)
Long-chain-fatty-acid--CoA …: MKLKLNVLTIILLPVHLLITIYSALIFIPWYFLTNAKKKNAMAKRIKAKPTSDKPGSPYRSVTHFDSLAVIDIPGADTLDKLFDHAVSKFGKKDSLGTREILSEENEMQPNGKVFKKLILGNYKWMNYLEVNRRVNNFGSGLTALGLKPKNTIAIFCETRAEWMIAAQTCFKYNFPLVTLYATLGKEAVVHGLNESEASYLITSVELLESKLKTALLDISCVKHIIYVDNKAINKAEYPEGFEIHSMQSVEELGSNPENLGIPPSRPTPSDMAIVMYTSGSTGRPKGVMMHHSNLIAGMTGQCERIPGLGPKDTYIGYLPLAHVLELTAEISCFTYGCRIGYSSPLTLSDQSSKIKKGSKGDCTVLKPTLMAAVPEIMDRIYKNVMSKVQEMNYIQKTLFKIGYDYKLEQIKKGYDAPLCNLLLFKKVKALLGGNVRMMLSGGAPLSPQTHRFMNVCFCCPIGQGYGLTESCGAGTVTEVTDYTTGRVGAPLICCEIKLKDWQEGGYTINDKPNPRGEIVIGGQNISMGYFKNEEKTAEDYSVDENGQRWFCTGDIGEFHPDGCLQIIDRKKDLVKLQAGEYVSLGKVEAALKNCPLIDNICAFAKSDQSYVISFVVPNQKRLTLLAQQKGVEGTWVDICNNPAMEAEILKEIREAANAMKLERFEIPIKVRLSPEPWTPETGLVTDAFKLKRKELRNHYLKDIERMYGGK
B3: sp¦Q9NVA1¦UQCC1_HUMAN (protein, UniProt Q9NVA1 1-299, looked up)
Ubiquinol-cytochrome c …: MALLVRVLRNQTSISQWVPVCSRLIPVSPTQGQGDRALSRTSQWPQMSQSRACGGSEQIPGIDIQLNRKYHTTRKLSTTKDSPQPVEEKVGAFTKIIEAMGFTGPLKYSKWKIKIAALRMYTSCVEKTDFEEFFLRCQMPDTFNSWFLITLLHVWMCLVRMKQEGRSGKYMCRIIVHFMWEDVQQRGRVMGVNPYILKKNMILMTNHFYAAILGYDEGILSDDHGLAAALWRTFFNRKCEDPRHLELLVEYVRKQIQYLDSMNGEDLLLTGEVSWRPLVEKNPQSILKPHSPTYNDEGL
B4: sp¦Q9NVJ2¦ARL8B_HUMAN (protein, UniProt Q9NVJ2 1-186, looked up)
ADP-ribosylation factor-like …: MLALISRLLDWFRSLFWKEEMELTLVGLQYSGKTTFVNVIASGQFSEDMIPTVGFNMRKVTKGNVTIKIWDIGGQPRFRSMWERYCRGVNAIVYMIDAADREKIEASRNELHNLLDKPQLQGIPVLVLGNKRDLPNALDEKQLIEKMNLSAIQDREICCYSISCKEKDNIDITLQWLIQHSKSRRS
B5: sp¦O96011¦PX11B_HUMAN (protein, UniProt O96011 1-259, looked up)
Peroxisomal membrane protein …: MDAWVRFSAQSQARERLCRAAQYACSLLGHALQRHGASPELQKQIRQLESHLSLGRKLLRLGNSADALESAKRAVHLSDVVLRFCITVSHLNRALYFACDNVLWAGKSGLAPRVDQEKWAQRSFRYYLFSLIMNLSRDAYEIRLLMEQESSACSRRLKGSGGGVPGGSETGGLGGPGTPGGGLPQLALKLRLQVLLLARVLRGHPPLLLDVVRNACDLFIPLDKLGLWRCGPGIVGLCGLVSSILSILTLIYPWLRLKP
B6: sp¦P27105¦STOM_HUMAN (protein, UniProt P27105 1-288, looked up)
Stomatin: MAEKRHTRDSEAQRLPDSFKDSPSKGLGPCGWILVAFSFLFTVITFPISIWMCIKIIKEYERAIIFRLGRILQGGAKGPGLFFILPCTDSFIKVDMRTISFDIPPQEILTKDSVTISVDGVVYYRVQNATLAVANITNADSATRLLAQTTLRNVLGTKNLSQILSDREEIAHNMQSTLDDATDAWGIKVERVEIKDVKLPVQLQRAMAAEAEASREARAKVIAAEGEMNASRALKEASMVITESPAALQLRYLQTLTTIAAEKNSTIVFPLPIDMLQGIIGAKHSHLG
B7: sp¦P16615¦AT2A2_HUMAN (protein, UniProt P16615 1-1042, looked up)
Sarcoplasmic/endoplasmic …: MENAHTKTVEEVLGHFGVNESTGLSLEQVKKLKERWGSNELPAEEGKTLLELVIEQFEDLLVRILLLAACISFVLAWFEEGEETITAFVEPFVILLILVANAIVGVWQERNAENAIEALKEYEPEMGKVYRQDRKSVQRIKAKDIVPGDIVEIAVGDKVPADIRLTSIKSTTLRVDQSILTGESVSVIKHTDPVPDPRAVNQDKKNMLFSGTNIAAGKAMGVVVATGVNTEIGKIRDEMVATEQERTPLQQKLDEFGEQLSKVISLICIAVWIINIGHFNDPVHGGSWIRGAIYYFKIAVALAVAAIPEGLPAVITTCLALGTRRMAKKNAIVRSLPSVETLGCTSVICSDKTGTLTTNQMSVCRMFILDRVEGDTCSLNEFTITGSTYAPIGEVHKDDKPVNCHQYDGLVELATICALCNDSALDYNEAKGVYEKVGEATETALTCLVEKMNVFDTELKGLSKIERANACNSVIKQLMKKEFTLEFSRDRKSMSVYCTPNKPSRTSMSKMFVKGAPEGVIDRCTHIRVGSTKVPMTSGVKQKIMSVIREWGSGSDTLRCLALATHDNPLRREEMHLEDSANFIKYETNLTFVGCVGMLDPPRIEVASSVKLCRQAGIRVIMITGDNKGTAVAICRRIGIFGQDEDVTSKAFTGREFDELNPSAQRDACLNARCFARVEPSHKSKIVEFLQSFDEITAMTGDGVNDAPALKKAEIGIAMGSGTAVAKTASEMVLADDNFSTIVAAVEEGRAIYNNMKQFIRYLISSNVGEVVCIFLTAALGFPEALIPVQLLWVNLVTDGLPATALGFNPPDLDIMNKPPRNPKEPLISGWLFFRYLAIGCYVGAATVGAAAWWFIAADGGPRVSFYQLSHFLQCKEDNPDFEGVDCAIFESPYPMTMALSVLVTIEMCNALNSLSENQSLLRMPPWENIWLVGSICLSMSLHFLILYVEPLPLIFQITPLNVTQWLMVLKISLPVILMDETLKFVARNYLEPGKECVQPATKSCSFSACTDGISWPFVLLIMPLVIWVYSTDTNFSDMFWS
B8: sp¦P51159¦RB27A_HUMAN (protein, UniProt P51159 2-221, looked up)
Ras-related protein Rab-27A: SDGDYDYLIKFLALGDSGVGKTSVLYQYTDGKFNSKFITTVGIDFREKRVVYRASGPDGATGRGQRIHLQLWDTAGQERFRSLTTAFFRDAMGFLLLFDLTNEQSFLNVRNWISQLQMHAYCENPDIVLCGNKSDLEDQRVVKEEEAIALAEKYGIPYFETSAANGTNISQAIEMLLDLIMKRMERCVDKSWIPEGVVRSNGHASTDQLSEEKEKGACGC
B9: sp¦P21964¦COMT_HUMAN (protein, UniProt P21964 1-271, looked up)
Catechol O-methyltransferase: MPEAPPLLLAAVLLGLVLLVVLLLLLRHWGWGLCLIGWNEFILQPIHNLLMGDTKEQRILNHVLQHAEPGNAQSVLEAIDTYCEQKEWAMNVGDKKGKIVDAVIQEHQPSVLLELGAYCGYSAVRMARLLSPGARLITIEINPDCAAITQRMVDFAGVKDKVTLVVGASQDIIPQLKKKYDVDTLDMVFLDHWKDRYLPDTLLLEECGLLRKGTVLLADNVICPGAPDFLAHVRGSSCFECTHYQSFLEYREVVDGLEKAIYKGPGSEAGP
B10: sp¦P61019¦RAB2A_HUMAN (protein, UniProt P61019 2-212, looked up)
Ras-related protein Rab-2A: AYAYLFKYIIIGDTGVGKSCLLLQFTDKRFQPVHDLTIGVEFGARMITIDGKQIKLQIWDTAGQESFRSITRSYYRGAAGALLVYDITRRDTFNHLTTWLEDARQHSNSNMVIMLIGNKSDLESRREVKKEEGEAFAREHGLIFMETSAKTASNVEEAFINTAKEIYEKIQEGVFDINNEANGIKIGPQHAATNATHAGNQGGQQAGGGCC
B11: sp¦Q9H939¦PPIP2_HUMAN (protein, UniProt Q9H939 1-334, looked up)
Proline-serine-threonine …: MTRSLFKGNFWSADILSTIGYDNIIQHLNNGRKNCKEFEDFLKERAAIEERYGKDLLNLSRKKPCGQSEINTLKRALEVFKQQVDNVAQCHIQLAQSLREEARKMEEFREKQKLQRKKTELIMDAIHKQKSLQFKKTMDAKKNYEQKCRDKDEAEQAVSRSANLVNPKQQEKLFVKLATSKTAVEDSDKAYMLHIGTLDKVREEWQSEHIKACEAFEAQECERINFFRNALWLHVNQLSQQCVTSDEMYEQVRKSLEMCSIQRDIEYFVNQRKTGQIPPAPIMYENFYSSQKNAVPAGKATGPNLARRGPLPIPKSSPDDPNYSLVDDYSLLYQ
B12: sp¦Q15645¦PCH2_HUMAN (protein, UniProt Q15645 1-432, looked up)
Pachytene checkpoint protein …: MDEAVGDLKQALPCVAESPTVHVEVHQRGSSTAKKEDINLSVRKLLNRHNIVFGDYTWTEFDEPFLTRNVQSVSIIDTELKVKDSQPIDLSACTVALHIFQLNEDGPSSENLEEETENIIAANHWVLPAAEFHGLWDSLVYDVEVKSHLLDYVMTTLLFSDKNVNSNLITWNRVVLLHGPPGTGKTSLCKALAQKLTIRLSSRYRYGQLIEINSHSLFSKWFSESGKLVTKMFQKIQDLIDDKDALVFVLIDEVESLTAARNACRAGTEPSDAIRVVNAVLTQIDQIKRHSNVVILTTSNITEKIDVAFVDRADIKQYIGPPSAAAIFKIYLSCLEELMKCQIIYPRQQLLTLRELEMIGFIENNVSKLSLLLNDISRKSEGLSGRVLRKLPFLAHALYVQAPTVTIEGFLQALSLAVDKQFEERKKLAAYI
B13: sp¦Q9BVC6¦TM109_HUMAN (protein, UniProt Q9BVC6 34-243, looked up)
Voltage-gated monoatomic …: QSRRDFAPPGQQKREAPVDVLTQIGRSVRGTLDAWIGPETMHLVSESSSQVLWAISSAISVAFFALSGIAAQLLNALGLAGDYLAQGLKLSPGQVQTFLLWGAGALVVYWLLSLLLGLVLALLGRILWGLKLVIFLAGFVALMRSVPDPSTRALLLLALLILYALLSRLTGSRASGAQLEAKVRGLERQVEELRWRQRRAAKGARSVEEE
B14: sp¦Q9Y3A6¦TMED5_HUMAN (protein, UniProt Q9Y3A6 28-229, looked up)
Transmembrane emp24 …: FTPSLDSDFTFTLPAGQKECFYQPMPLKASLEIEYQVLDGAGLDIDFHLASPEGKTLVFEQRKSDGVHTVETEVGDYMFCFDNTFSTISEKVIFFELILDNMGEQAQEQEDWKKYITGTDILDMKLEDILESINSIKSRLSKSGHIQTLLRAFEARDRNIQESNFDRVNFWSMVNLVVMVVVSAIQVYMLKSLFEDKRKSRT

Test system: human HL60 cells
Experiment: SWATH-MS proteomics, differential protein representation, akirin2 KO vs WT HL60 cells
Assay type: cell-based
Details: KO vs WT HL60 cells; sheet "Under-represented in KO"
Method in brief: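 Read-out is label-free SWATH-MS protein area, globally normalized to total detected-protein area, with identifications held at 1% FDR against a library from information-dependent acquisition.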

In order of falling “Fold Change” value:
1. B8  0.5507
2. B6  0.5492
3. B1  0.5435
4. B4  0.5417
5. B7  0.5392
6. B2  0.5384
7. B3  0.5349
8. B5  0.5344

In order of falling “Log (Fold Change)” value:
1. B8  -0.2591
2. B6  -0.2603
3. B1  -0.2648
4. B4  -0.2663
5. B7  -0.2682
6. B2  -0.2689
7. B3  -0.2718
8. B5  -0.2721

Same assay, conditions: KO vs WT; akirin2 KO vs WT HL60 cells; sheet "Under-represented in KO"

In order of falling “Fold Change” value:
1. B11  0.5689
2. B9  0.567
3. B10  0.5636
4. B12  0.5524
5. B13  0.5517

In order of rising “Log (Fold Change)” value:
1. B13  -0.2583
2. B12  -0.2577
3. B10  -0.249
4. B9  -0.2464
5. B11  -0.2449

Same assay, conditions: akirin2 KO vs WT HL60 cells; sheet "Under-represented in KO"

In the case of B14, the “Fold Change” value is reported as 0.2554.

In the case of B14, the “Log (Fold Change)” value is reported as -0.5928.
